Measured values: patent US20120316071A1 (published 2012)
Numbering of substitutions follows the chain as printed. In names and notes the source's numbering stands.

B1: Fab VH1-46_IGHD6-6*01_IGHJ1*01 S102A/S103P/S104F/H111F/I51T/N52L/P53E/S54T/G56H & L6_IGKJ1*01 (Fab, V domains shown)
VH: QVQLVQSGAEVKKPGASVKVSCKASGYTFTSYYMHWVRQAPGQGLEWMGITLETGHSTSYAQKFQGRVTMTRDTSTSTVYMELSSLRSEDTAVYYCAREEYAPFSAEYFQFWGQGTLVTVSS
VL: not shown
notes: Tested as Fab expressed in E. coli (CH1 with His6/Flag tags from plasmid A; kappa CL from plasmid C); also called APFF TLETH
B2: Fab VH1-46_IGHD6-6*01_IGHJ1*01 S102A/S103P/S104F/H111F/I51T/N52L/P53V/S54T/G56H & L6_IGKJ1*01 (Fab, V domains shown)
VH: B1 VH with E53V
VL: not shown
notes: Tested as Fab expressed in E. coli (CH1 with His6/Flag tags from plasmid A; kappa CL from plasmid C); also called APFF TLVTH
B3: Fab VH1-46_IGHD6-6*01_IGHJ1*01 S102A/S103P/S104F/H111F/I51T/N52L/P53H/S54T/G56H & L6_IGKJ1*01 (Fab, V domains shown)
VH: B1 VH with E53H
VL: not shown
notes: Tested as Fab expressed in E. coli (CH1 with His6/Flag tags from plasmid A; kappa CL from plasmid C); also called APFF TLHTH
B4: Fab VH1-46_IGHD6-6*01_IGHJ1*01 S102A/S103P/S104F/H111F/I51W/N52L/S54T/G56H (APFF WLTH) & L6_IGKJ1*01 (Fab, V domains shown)
VH: B1 VH with T51W, E53P
VL: not shown
notes: Fab made in E. coli; CH1 with tags and kappa CL are not included
B5: Fab VH1-46_IGHD6-6*01_IGHJ1*01 S102A/S103P/S104F/H111F/I51N/N52L/S54T/G56H (APFF NLTH) & L6_IGKJ1*01 (Fab, V domains shown)
VH: B1 VH with T51N, E53P
VL: not shown
notes: as for B4
B6: Fab VH1-46_IGHD6-6*01_IGHJ1*01 S102A/S103P/S104F/H111F/I51H/N52L/S54T/G56H (APFF HLTH) & L6_IGKJ1*01 (Fab, V domains shown)
VH: B1 VH with T51H, E53P
VL: not shown
notes: as for B4
B7: Fab VH1-46_IGHD6-6*01_IGHJ1*01 S102A/S103P/S104F/H111F/I51E/N52L/S54T/G56H (APFF ELTH) & L6_IGKJ1*01 (Fab, V domains shown)
VH: B1 VH with T51E, E53P
VL: not shown
notes: as for B4
B8: Fab VH1-46_IGHD6-6*01_IGHJ1*01 S102A/S103P/S104F/H111F/I51T/N52L/S54T/G56H (APFF TLTH) & L6_IGKJ1*01 (Fab, V domains shown)
VH: B1 VH with E53P
VL: not shown
notes: as for B4
B9: Fab VH1-46_IGHD6-6*01_IGHJ1*01 S102A/S103P/S104F/H111F/I51G/N52L/S54T/G56H (APFF GLTH) & L6_IGKJ1*01 (Fab, V domains shown)
VH: B1 VH with T51G, E53P
VL: not shown
notes: as for B4
B10: Fab VH1-46_IGHD6-6*01_IGHJ1*01 S102A/S103P/S104F/H111F/I51Y/N52L/S54T/G56H (APFF YLTH) & L6_IGKJ1*01 (Fab, V domains shown)
VH: B1 VH with T51Y, E53P
VL: not shown
notes: as for B4
B11: Fab VH1-46_IGHD6-6*01_IGHJ1*01 S102A/S103P/S104F/H111F/I51V/N52L/S54T/G56H (APFF VLTH) & L6_IGKJ1*01 (Fab, V domains shown)
VH: B1 VH with T51V, E53P
VL: not shown
notes: as for B4
B12: Fab VH1-46_IGHD6-6*01_IGHJ1*01 S102A/S103P/S104F/H111F/N52L/S54T/G56H (APFF LTH) & L6_IGKJ1*01 (Fab, V domains shown)
VH: B1 VH with T51I, E53P
VL: not shown
notes: Fab made in E. coli; CH1 with tags and kappa CL are not included; also called H:APFF LTH & L:wt
B13: Fab VH1-46_IGHD6-6*01_IGHJ1*01 S102A/S103P/S104F/H111F/I51A/N52L/S54T/G56H (APFF ALTH) & L6_IGKJ1*01 (Fab, V domains shown)
VH: B1 VH with T51A, E53P
VL: not shown
notes: as for B4
B14: Fab VH1-46_IGHD6-6*01_IGHJ1*01 S102A/S103P/S104F/H111F/I51R/N52L/S54T/G56H (APFF RLTH) & L6_IGKJ1*01 (Fab, V domains shown)
VH: B1 VH with T51R, E53P
VL: not shown
notes: as for B4
B15: Fab VH1-46_IGHD6-6*01_IGHJ1*01 S102A/S103P/S104F/H111F S54A & L6_IGKJ1*01 (Fab, V domains shown)
VH: B1 VH with T51I, L52N, E53P, T54A, H56G
VL: not shown
notes: Fab made in E. coli; CH1 with tags and kappa CL are not included; also called APFF S54A; H:APFF S54A
B16: Fab VH1-46_IGHD6-6*01_IGHJ1*01 & L6_IGKJ1*01 (Fab, V domains shown)
VH: B1 VH with T51I, L52N, E53P, T54S, H56G, A102S, P103S, F104S, F111H
VL: not shown
notes: Germline 'Hit' Fab; The VH was cloned into Plasmid A (CH1, His6 and Flag tags) and the kappa VL into Plasmid C (kappa CL); expressed in E. coli; also called Parent; parental
B17: Fab VH1-46_IGHD6-6*01_IGHJ1*01 S103P & L6_IGKJ1*01 (Fab, V domains shown)
VH: B1 VH with T51I, L52N, E53P, T54S, H56G, A102S, F104S, F111H
VL: not shown
notes: Fab; The VH was cloned into Plasmid A (CH1, His6 and Flag tags) and the kappa VL into Plasmid C (kappa CL); expressed in E. coli
B18: Fab VH1-46_IGHD6-6*01_IGHJ1*01 S103A & L6_IGKJ1*01 (Fab, V domains shown)
VH: B1 VH with T51I, L52N, E53P, T54S, H56G, A102S, P103A, F104S, F111H
VL: not shown
notes: as for B17
B19: Fab VH1-46_IGHD6-6*01_IGHJ1*01 S102A & L6_IGKJ1*01 (Fab, V domains shown)
VH: B1 VH with T51I, L52N, E53P, T54S, H56G, P103S, F104S, F111H
VL: not shown
notes: as for B17
B20: Fab VH1-46_IGHD6-6*01_IGHJ1*01 S104A & L6_IGKJ1*01 (Fab, V domains shown)
VH: B1 VH with T51I, L52N, E53P, T54S, H56G, A102S, P103S, F104A, F111H
VL: not shown
notes: Heavy chain CDR3 alanine mutant of the parent Fab; Fab format with CH1, kappa CL, His6 and Flag tags from the expression plasmids
B21: Fab VH1-46_IGHD6-6*01_IGHJ1*01 S105A & L6_IGKJ1*01 (Fab, V domains shown)
VH: B1 VH with T51I, L52N, E53P, T54S, H56G, A102S, P103S, F104S, S105A, F111H
VL: not shown
notes: as for B20

What follows are binders tested against T1, Recombinant Human DLL4 (human, UniProt Q9NR61 27-524) (assay: ECL 96-well plate binding assay, DLL4 immobilised, 10 nM Fab).
T1 construct: Bought recombinant protein (R&D Systems Cat#1506-D4/CF), coated on the plate; also called delta-like protein 4; Delta-like 4

**Q.** B1 was tested. Which “ECL signal” value did it give?
**A.** 91500

**Q.** For B2, which “ECL signal” value is on record?
**A.** 91500

**Q.** Which “ECL signal” value does the source give for B3 here?
**A.** 108000

The binders below were run against T2, Recombinant Human DLL4 (delta-like protein 4) (human, UniProt Q9NR61 27-529) (assay: 96-well plate ECL (MSD) binding assay on coated DLL4, 10 nM Fab).
T2 construct: Bought recombinant human DLL4 (R&D Systems Cat#1506-D4/CF), coated on the plate; also called rHuman DLL4; Delta-like 4

**Q.** With B4 as the binder, how does the “ECL signal” value read?
**A.** 126000

**Q.** With B5 as the binder, how does the “ECL signal” value read?
**A.** 126000

**Q.** For B6, which “ECL signal” value is on record?
**A.** 155000

**Q.** With B7 as the binder, how does the “ECL signal” value read?
**A.** 167000

**Q.** Which “ECL signal” value does the source give for B8 here?
**A.** 123000

**Q.** B9 was tested. Which “ECL signal” value did it give?
**A.** 131000

**Q.** How did the “ECL signal” value turn out when B10 was run?
**A.** 155000

**Q.** With B11 as the binder, how does the “ECL signal” value read?
**A.** 192000

**Q.** B12 was tested. Which “ECL signal” value did it give?
**A.** 165000

**Q.** For B13, which “ECL signal” value is on record?
**A.** 143000

**Q.** For B14, which “ECL signal” value is on record?
**A.** 92400

Each binder was assayed against T2, Recombinant Human DLL4 (delta-like …) (assay: ELISA on coated DLL4, 100 nM Fab).

**Q.** With B15 as the binder, how does the “ELISA signal” value read?
**A.** 0.02

These binders were tested against T3, Recombinant Human DLL4 (delta-like protein 4) (human, UniProt Q9NR61 27-529) (assay: ECL (MSD) multispot assay; Fab 0.01 µM).
T3 construct: Bought recombinant protein (R&D Systems Cat#1506-D4/CF); also called rHuman DLL4; Delta-like 4

**Q.** B16 was tested. Which “ECL signal” value did it give?
**A.** 1030

**Q.** And the Signal/Noise?
**A.** 4.9

**Q.** Which results are given for B17?
**A.** ECL signal: 4100; Signal/Noise: 22.9

**Q.** What does the source list for B18?
**A.** ECL signal: 1190; Signal/Noise: 4.5

**Q.** Which results are given for B19?
**A.** ECL signal: 2600; Signal/Noise: 10

These binders were tested against T1, Recombinant Human DLL4 (assay: ELISA, DLL4 coated, 100 nM Fab).

**Q.** With B1 as the binder, how does the “ELISA signal” value read?
**A.** 0.017

**Q.** Which “ELISA signal” value does the source give for B2 here?
**A.** 0.035

**Q.** How did the “ELISA signal” value turn out when B3 was run?
**A.** 0.287

What follows are binders tested against T3, Recombinant Human DLL4 (delta-like …) (assay: ECL (MSD) multispot assay; Fab 0.1 µM).

**Q.** With B16 as the binder, how does the “ECL signal” value read?
**A.** 7000

**Q.** What about the Signal/Noise of the same binder?
**A.** 40.9

**Q.** B17 was tested. Which “ECL signal” value did it give?
**A.** 19300

**Q.** What about the Signal/Noise of the same binder?
**A.** 139

**Q.** Which results are given for B18?
**A.** ECL signal: 7110; Signal/Noise: 31.6

**Q.** Which results are given for B19?
**A.** ECL signal: 15800; Signal/Noise: 71.6

Target: T2, Recombinant Human DLL4 (delta-like …)
Test: ELISA on coated DLL4, 100 nM Fab
Remark: another data set of the same source

**Q.** Which “ELISA signal” value does the source give for B4 here?
**A.** 0.088

**Q.** With B5 as the binder, how does the “ELISA signal” value read?
**A.** 1.09

**Q.** B6 was tested. Which “ELISA signal” value did it give?
**A.** 0.647

**Q.** How did the “ELISA signal” value turn out when B7 was run?
**A.** 0.995

**Q.** With B8 as the binder, how does the “ELISA signal” value read?
**A.** 0.641

**Q.** Which “ELISA signal” value does the source give for B9 here?
**A.** 0.407

**Q.** Which “ELISA signal” value does the source give for B10 here?
**A.** 0.513

**Q.** For B11, which “ELISA signal” value is on record?
**A.** 1.1

**Q.** B12 was tested. Which “ELISA signal” value did it give?
**A.** 1.1

**Q.** B13 was tested. Which “ELISA signal” value did it give?
**A.** 0.62

**Q.** How did the “ELISA signal” value turn out when B14 was run?
**A.** 0.512

These binders were tested against T4, Recombinant Human DLL4 (human, UniProt Q9NR61 27-524) (assay: ECL (MSD) 96-well plate assay; plate coated with 30 ug/mL DLL4; 0.02 uM Fab).
T4 construct: Bought recombinant protein (R&D Systems Cat#1506-D4/CF); also called delta-like protein 4; Delta-like 4

**Q.** What does the source list for B20?
**A.** ECL signal: 163000; Signal/Noise: 431

**Q.** What does the source list for B21?
**A.** ECL signal: 1100; Signal/Noise: 2.9

The binders below were run against T4, Recombinant Human DLL4 (assay: ECL (MSD) 96-well plate assay; plate coated with 15 ug/mL DLL4; 0.004 uM Fab).

**Q.** What does the source list for B20?
**A.** ECL signal: 3610; Signal/Noise: 24.8

**Q.** With B21 as the binder, how does the “ECL signal” value read?
**A.** 181

**Q.** What about the Signal/Noise of the same binder?
**A.** 1.2
